Reference: US10781452B2, “FLT3 receptor antagonists for the treatment or the prevention of pain disorders” (INSTITUT NATIONAL DE LA SANTE ET DE LA RECHERCHE MEDICALE …, priority 2010, dated 2020)

How the values were obtained:
[1] = target: T1, ECD of human recombinant FLT3 (Fc-ECDhFLT3) (Homo sapiens, UniProt P36888); assay: ELISA binding to ECD of human recombinant FLT3; settings: antibody at 10 μg/mL
T1 construct: ECD of human or mouse recombinant FLT3 produced in NSO cell line; host or cells: NSO cell line
T1 sequence (P36888 27-543 limits assumed): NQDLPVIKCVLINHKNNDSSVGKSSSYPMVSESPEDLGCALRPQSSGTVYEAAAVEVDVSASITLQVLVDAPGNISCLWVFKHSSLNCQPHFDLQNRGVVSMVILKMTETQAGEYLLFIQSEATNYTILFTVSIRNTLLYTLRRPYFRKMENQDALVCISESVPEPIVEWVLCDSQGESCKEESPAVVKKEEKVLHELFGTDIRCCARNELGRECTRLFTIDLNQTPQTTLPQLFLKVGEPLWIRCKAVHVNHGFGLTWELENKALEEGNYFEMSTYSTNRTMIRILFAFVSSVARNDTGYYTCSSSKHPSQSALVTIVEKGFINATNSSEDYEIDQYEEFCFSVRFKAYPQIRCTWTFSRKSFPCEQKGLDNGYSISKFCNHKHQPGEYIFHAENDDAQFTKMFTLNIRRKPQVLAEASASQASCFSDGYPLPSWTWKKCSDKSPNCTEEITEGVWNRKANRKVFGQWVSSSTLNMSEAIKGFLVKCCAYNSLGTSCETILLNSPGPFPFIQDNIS
Procedure: (§1) The A3 antibody directed against FLT3 was produced by a phage display strategy and the antibody selection was performed by using ECD of human or mouse recombinant FLT3 produced in NSO cell line. To identify antibodies cross-reacting with both human and mouse FLT3, phages were selected by three rounds of panning, according to methods well known in the art (Philibert, P. et al. A focused antibody library for selecting scFvs expressed at high levels in the cytoplasm. BMC Biotechnol. 7, 81; 2007), first against the ECD of human FLT3, then against the ECD of mouse FLT3 and then against the ECD of human FLT3. A batch of one selected antibody named A3 was tested for its ability to bind to the ECD of human or mouse recombinant FLT3 using an ELISA technique.

[2] = test system: Fc fragment alone; assay: ELISA binding to Fc fragment alone; settings: antibody at 10 μg/mL
Procedure: as §1

B1: A3 antibody: human monoclonal antibody against FLT3; VH SEQ ID NO:1, VL SEQ ID NO:2 (antibody, V domains shown)
VH: EVQLVESGGSLVKPGGSLRLSCAASGFTFSNSYMNWVRQAPGKGLEWISDISGSSRDIDYADFVKGRFTISRDNATNSLYLQMNSLRAEDTAVYYCVRSGNSGMDVWGRGTLVTVSS
VL: QSVLTQPASVSGSPGQSITISCAGTSSDVGGGYYVSWYQQHPGKAPKLMIYYDSYRPSGVSNRFSGSKSGNTASLTISGLQAEDEADYYCSSYTNNSTRVFGGGTKLEIK
modifications: Synthetic VH domain of A3; Synthetic VL region of A3
ELISA immunoreactivity against Fc-ECDhFLT3 [1]: generates immunoreactivity | ELISA immunoreactivity against Fc fragment alone [2]: not against the Fc fragment alone
